In patent publication EP4703388A1 (Jiangsu Hengrui Pharmaceuticals Co., Ltd., dated 2024):
Changes are numbered by the printed parent chain.

T1: cyno TF ECD-His (cTF-his) (monkey (cyno))
T1 construct: also called bio-cTF-his; monkey TF-His protein
T1 chain: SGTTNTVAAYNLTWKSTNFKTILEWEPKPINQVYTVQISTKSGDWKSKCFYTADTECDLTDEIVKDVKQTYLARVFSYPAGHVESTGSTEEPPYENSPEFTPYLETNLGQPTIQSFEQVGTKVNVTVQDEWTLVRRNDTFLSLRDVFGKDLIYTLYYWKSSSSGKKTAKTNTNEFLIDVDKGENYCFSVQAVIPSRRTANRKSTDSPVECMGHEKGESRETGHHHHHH

T2: rat TF ECD-His (rat, UniProt P42533 29-252)
T2 construct: also called rat TF-His protein; rat TF antigen protein
T2 sequence: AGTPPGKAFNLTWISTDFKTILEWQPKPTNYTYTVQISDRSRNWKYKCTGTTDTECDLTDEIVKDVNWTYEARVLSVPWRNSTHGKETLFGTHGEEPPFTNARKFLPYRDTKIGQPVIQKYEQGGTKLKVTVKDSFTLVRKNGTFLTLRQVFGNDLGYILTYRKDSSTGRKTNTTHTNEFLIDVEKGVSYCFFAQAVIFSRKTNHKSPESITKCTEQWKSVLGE

T3: mouse TF ECD-His (mouse, UniProt P20352 29-251)
T3 construct: also called Mouse TF-His protein; mouse TF antigen protein
T3 sequence: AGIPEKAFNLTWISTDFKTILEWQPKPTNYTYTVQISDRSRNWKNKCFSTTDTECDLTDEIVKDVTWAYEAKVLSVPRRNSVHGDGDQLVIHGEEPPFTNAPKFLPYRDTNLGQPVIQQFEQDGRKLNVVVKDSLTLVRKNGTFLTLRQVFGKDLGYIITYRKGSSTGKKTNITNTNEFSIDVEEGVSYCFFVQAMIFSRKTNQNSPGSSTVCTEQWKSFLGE

T4: HuRatTF, human-rat hybrid TF antigen (human-rat hybrid)
T4 construct: also called HuRatTF protein; human-rat hybrid TF protein
T4 chain: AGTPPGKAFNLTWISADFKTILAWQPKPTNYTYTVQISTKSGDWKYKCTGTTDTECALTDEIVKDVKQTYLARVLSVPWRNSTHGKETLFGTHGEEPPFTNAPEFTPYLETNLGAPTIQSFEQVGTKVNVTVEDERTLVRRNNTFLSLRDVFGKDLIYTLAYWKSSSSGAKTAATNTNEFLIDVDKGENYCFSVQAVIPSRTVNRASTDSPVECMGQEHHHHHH

B1: hu10H10-29 (antibody, V domains shown)
VH: EVQLVQSGSELKKPGASVKVSCKASGYTFITYWIEWVKQRPGQGLEWMGDILPYSGSTNYNENFKGRATFSADTSVSTAYLQISSLKAEDTAVYYCARSGYYGNSGFAYWGQGTLVTVSS
VL: DIQMTQSPSSLSASVGDRVTITCKSSQSLLSSGNQKNYLTWYQQKPGKAPKLLIYWASTRESGVPSRFSGSGSGTDFTLTISSLQPEDFATYYCQNDYTYPLTFGQGTKLEIK
notes: H11+L1; Full-length IgG
B2: hu10H10-53 (antibody, V domains shown)
VH: B1 VH
VL: B1 VL with G33S, S62E
notes: H11+L6; Full-length IgG
B3: hu10H10-77 (antibody, V domains shown)
VH: B1 VH
VL: B1 VL with K24Q
notes: H11+L9; Full-length IgG
B4: hu310-2 (antibody, human IgG1, kappa, V domains shown)
VH: EVQLVQSGAEVKKPGASVKVSCKASGYSFTGYYMNWVRQAPGQGLEWMGEINPSTGGSTYNQKFKARVTMTVDQSTSTVYMELSSLRSEDTAVYYCARRELGGPFGYWGQGTTVTVSS
VL: SIVMTQSPDSLAVSLGERATINCKASQSVSNGIAWYQQKPGQSPKLLIYFASNRYTGVPDRFSGSGYGTDFTLTISSLQAEDVAVYYCQQDYSSPWTFGGGTKVEIKR
B5: chimeric antibody CH67 (antibody, human IgG1, kappa, V domains shown)
VH: QVQLKQSGPGLVQPSQSLSITCIVSGFSLTNYGVNWVRQSPRKGLEWLGVIWSRGNTDYNAAFISRLIISKDNSKSQVFLKMNRLQADDTAIYYCARKDAVVATDALDYWGQGTSVTVSS
VL: DIVMTQSHKFMSTSLGDRVSITCKASQDVSTAVAWYQQKPGQSPKLLIYSTSYRYTGVPDRFTGSGSGTDFTFTISSVQAEDLAVYYCQQHYSTPYTFGGGTKLEIKR
notes: Murine 67# variable regions + human constant regions
B6: hu67-4 (antibody, human IgG1, kappa, V domains shown)
VH: EVQLQESGPGLVKPSQTLSLTCTVSGFSLTNYGVNWIRQPPRKGLEWIGVIWSRGNTDYNAAFISRVTISKDNSKSQVSLKLSSVTAADTAVYYCARKDAVVATDALDYWGQGTTVTVSS
VL: DIVMTQSPKSLAVSLGERATINCKASQDVSTAVAWYQQKPGQPPKLLIYSTSYRYTGVPDRFSGSGSGTDFTLTISSLQAEDVAVYYCQQHYSTPYTFGGGTKVEIKR
B7: hu67-14 (antibody, human IgG1, kappa, V domains shown)
VH: EVTLKQSGPVLVKPTQTLTLTCTVSGFSLTNYGVNWIRQPPRKGLEWLGVIWSRGNTDYNAAFISRLTISKDNSKSQVVLKMTNMDPVDTATYYCARKDAVVATDALDYWGQGTTVTVSS
VL: DIQMTQSHKFLSASVGDRVTITCKASQDVSTAVAWYQQKPGKSPKLLIYSTSYRYTGVPSRFSGSGSGTDFTFTISSLQPEDIATYYCQQHYSTPYTFGGGTKVEIKR
B8: hu10H10-37 (antibody, V domains shown)
VH: B1 VH
VL: B1 VL with S62E
notes: H11+L3; Full-length IgG
B9: hu10H10-38 (antibody, V domains shown)
VH: B1 VH with Y54G, S55H
VL: B1 VL with S62E
notes: H12+L3; Full-length IgG
B10: hu10H10-39 (antibody, V domains shown)
VH: B1 VH with Y54G, S57W
VL: B1 VL with S62E
notes: H13+L3 (printed bu10H10-39); Full-length IgG; also called bu10H10-39
B11: hu10H10-40 (antibody, V domains shown)
VH: B1 VH with K38R, Y54G, S57W, T69V
VL: B1 VL with S62E
notes: H14+L3 (printed bu10H10-40); Full-length IgG; also called bu10H10-40
B12: hu10H10-57 (antibody, V domains shown)
VH: B1 VH with K38R, Y54G, T69V
VL: B1 VL with S31D, S62E
notes: H2+L5; Full-length IgG
B13: hu10H10-58 (antibody, V domains shown)
VH: B1 VH with K38R, Y54G, T69V
VL: B1 VL with G33S, S62E
notes: H2+L6; Full-length IgG

Assays:
[1] = biological target: T1, cyno TF ECD-His (cTF-his); assay: SPR Biacore T200, antibody on Protein A chip, TF-His as analyte, 1:1 model
[2] = biological target: T5, human TF ECD-His (hTF-his) (human, UniProt P13726 33-251); assay: as above
T5 construct: also called bio-hTF-his; human TF-His protein

[3] = biological target: T6, human tissue factor (TF) on MDA-MB-231, NCI-H358 and HCT116 cells (human, UniProt P13726 33-295); assay: flow cytometry on H358 cells
T6 construct: whole, on cells; also called TF antigen; CD142

[4] = biological target: T6, human tissue factor (TF) on MDA-MB-231, …; assay: flow cytometry on MDA-MB-231 cells
[5] = biological target: T6, human tissue factor (TF) on MDA-MB-231, …; assay: flow cytometry on HCT116 cells
[6] = biological target: T6, human tissue factor (TF) on MDA-MB-231, …; assay: cell-based or functional assay
rat TF ECD-His = biological target: T2, rat TF ECD-His; assay: ELISA, TF-His coated at 4 µg/mL, antibody titrated
mouse TF ECD-His = biological target: T3, mouse TF ECD-His; assay: ELISA, TF-His coated at 4 µg/mL, antibody titrated
[7] = biological target: T4, HuRatTF, human-rat hybrid TF antigen; assay: ELISA, HuRatTF coated, antibody titrated
[8] = biological target: T6, human tissue factor (TF) on MDA-MB-231, …; assay: cell-based or functional assay; remark: listed apart in the source
[9] = biological target: T1, cyno TF ECD-His (cTF-his); assay: ELISA, antibody captured by anti-human IgG, biotinylated TF-his titrated
[10] = biological target: T5, human TF ECD-His (hTF-his); assay: as above

| Kd [1] [nM] | koff [1] [s⁻¹] | kon [1] [M⁻¹ s⁻¹] | Kd [2] [nM] | koff [2] [s⁻¹] | kon [2] [M⁻¹ s⁻¹] | EC50 [3] [nM] | EC50 [4] [nM] | EC50 [5] [nM] | Inhibition rate (%), Factor-VII-Human Chromogenic-Activity blood coagulation pathway assay (FVIIa, MDA-MB-231 cells, FX; antibody 20 µg/mL) [6] [%] | binding result (rat TF ECD-His) | binding result (mouse TF ECD-His) | EC50 [7] [nM] | Maximum (OD450 nm) [7] [OD450 nm] | EC50 (nM), IL8 assay (IL-8 of MDA-MB-231 cells after antibody and FVIIa) [8] [nM] | EC50 [9] [µg/mL] | Emax [9] | EC50 [10] [µg/mL] | Emax [10] | Binder |
| --- | --- | --- | --- | --- | --- | --- | --- | --- | --- | --- | --- | --- | --- | --- | --- | --- | --- | --- | --- |
| 0.642 | 9.83e-05 | 153000 | 0.545 | 7.45e-05 | 137000 | 0.45 | 1.09 |  |  |  |  |  |  |  |  |  |  |  | B1 |
| 0.375 | 6.77e-05 | 181000 | 0.47 | 7.34e-05 | 156000 | 0.41 | 1.09 |  |  |  |  |  |  |  |  |  |  |  | B2 |
| 0.677 | 0.000114 | 169000 | 0.749 | 0.00011 | 146000 | 0.68 | 1.64 | 0.47 | -1.8 | no binding | no binding | 2 | 1.39 | 0.412 | 0.0027 | 1.13 | 0.0035 | 1 | B3 |
| 19.2 | 0.00637 | 332000 | 18.5 | 0.00699 | 378000 | 0.67 | 1.32 | 0.34 | -2.8 | no binding | no binding | 2.13 | 0.428 | 0.407 | 0.041 | 0.92 | 0.0529 | 0.92 | B4 |
| 16 | 0.000473 | 29500 | 36.7 | 0.000969 | 26400 | 55.9 | 16.5 |  |  |  |  |  |  |  |  |  |  |  | B5 |
| 15.5 | 0.000523 | 33700 | 18.9 | 0.000766 | 40500 | 90.5 | 18 |  |  |  |  |  |  |  |  |  |  |  | B6 |
| 12.9 | 0.000399 | 31000 | 20.1 | 0.000624 | 31000 | 107 | 18.9 |  |  |  |  |  |  |  |  |  |  |  | B7 |
|  |  |  |  |  |  | 0.35 | 1.07 |  |  |  |  |  |  |  |  |  |  |  | B8 |
|  |  |  |  |  |  | 0.81 | 1.14 |  |  |  |  |  |  |  |  |  |  |  | B9 |
|  |  |  |  |  |  | 0.42 | 1.1 |  |  |  |  |  |  |  |  |  |  |  | B10 |
|  |  |  |  |  |  | 0.55 | 1.07 |  |  |  |  |  |  |  |  |  |  |  | B11 |
|  |  |  |  |  |  | 1.02 | 1.12 |  |  |  |  |  |  |  |  |  |  |  | B12 |
|  |  |  |  |  |  | 1.09 | 1.43 |  |  |  |  |  |  |  |  |  |  |  | B13 |
